# Results from the supplement of paper PMC12042874.
# ± gives the uncertainty stated by the source.
# Assay: amyloid nucleation score (Sup35N fusion, yeast selection) (log enrichment); library NNK1; higher = more nucleation; inactive = no reads after selection
# Method in brief: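 Output and input plasmid inserts were sequenced by Illumina after psi-negative yeast carrying Sup35N fused to peptides of 20 random codons had been induced 24 hours with 100 μM copper sulfate and grown 7 days at 30°C on medium lacking adenine and uracil. The nucleation score is the DiMSum log enrichment of output over input reads, centred on the mode score of non-aggregating sequences. Sequences with under 100 input reads were excluded.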
row,Substance,amyloid nucleation score
1,WISHSVSLFVSVLGMWMSRD,-2.09 ± 2.4
2,WISYVQNTIYRFAFEESCLG,1.31 ± 0.43
3,WKCWGLCHLQR,-1 ± 0.93
4,WKVKLNGIG,0.341 ± 0.28
5,WKYVTLELIWWTTLVTAWGT,1.02 ± 0.8
6,WLDHEISSELAGYPLWLSAN,2.19 ± 0.17
7,WLDRGW,0.282 ± 0.33
8,WLESRQPAEESVVVWNERVG,-0.831 ± 1.3
9,WLGMRMVGNVVERLYSVRCQ,-0.111 ± 0.7
10,WLHGFKWRED,-0.541 ± 0.68
11,WLISFGDFDGSMFKMMSNTK,2.67 ± 0.13
12,WLIVIGMGRLGIVIMLGGLK,0.723 ± 0.44
13,WLLVQLYYVCYFGLRLEFSM,-0.237 ± 0.18
14,WLNHKRIVINTQLMLYSPGC,4.68 ± 0.11
15,WLVGKTCNLYDLVLASLSNG,-0.704 ± 0.4
16,WLWPPLACDHMPIAVSETDA,-0.775 ± 0.99
17,WMDNTSHRFESCEV,0.635 ± 0.55
18,WMLVRAACLGIKRKNG,0.759 ± 0.51
19,WMYRLYSISLITSDCS,0.514 ± 0.33
20,WMYTMTGFEVNRTVNFYWTI,-0.095 ± 0.29
21,WNDWSYHCNF,-0.11 ± 0.27
22,WNLATMVADRSPRNKLWTRP,0.397 ± 0.97

row,Substance,amyloid nucleation score
1,WNMLPSIPGDRGWLDGVPVV,-0.45 ± 0.39
2,WNNVSCIELSSVSWNPDEVG,-0.302 ± 0.3
3,WNPYPTCSYSPFATSGDSAF,-1.13 ± 0.76
4,WPGLFMIY,0.016 ± 0.49
5,WPGMPRS,1.17 ± 0.35
6,WPWCQYTYRFLSIMCKVFL,0.288 ± 0.65
7,WRFLLWSFHSEAYLIVYS,-0.773 ± 0.49
8,WRNYYHWVTFRSDRLDRWFG,1.85 ± 0.12
9,WRRRDRVLQCWL,inactive
10,WRSSWWWRCCYYSSSSMSRW,1.12 ± 0.6
11,WRTARFSGKF,-0.048 ± 0.4
12,WRVYQSFGDLAVCTF,0.326 ± 0.45
13,WRYRRCSYY,0.781 ± 0.47
14,WRYRSRCMGGVVDRLLCDVW,3.33 ± 0.076
15,WSHSILCIQSRSRIYPTHWL,0.495 ± 0.29
16,WSIDVNTTACKFFFRCSSCN,1.43 ± 0.74
17,WSIEWFYSMSYARIDME,-1.23 ± 0.79
18,WSINMCCMRSRLWNFDGRKE,4.04 ± 0.074
19,WSMLSADSRISYYIYQCSLF,2.31 ± 0.32
20,WSSHYVSLRKVCVCGRRPWS,3.46 ± 0.079
21,WSVDIGLRGLIMRMKYCEFR,-1.01 ± 0.54
22,WSWRRVVAWLH,0.727 ± 0.34

row,Substance,amyloid nucleation score
1,WSYGSEPM,inactive
2,WTAHSSL,1.09 ± 0.76
3,WTFTVVFFLKVSSL,0.81 ± 0.78
4,WTWILPMVRTIIYQY,-0.356 ± 0.27
5,WVIVASP,-1.42 ± 0.85
6,WVLPEAHVYGRWVT,1.06 ± 0.52
7,WVSNL,0.296 ± 0.44
8,WVTHRL,-0.715 ± 1.2
9,WWIGNSTRYCVGMVWSI,inactive
10,WWLLSLP,0.196 ± 0.26
11,WWVNL,0.247 ± 0.3
12,WWYSDMWMVSC,2.34 ± 0.46
13,WYIVGSFTGITLVVNLALNL,inactive
14,WYIVPITVNFQG,6.54 ± 0.049
15,WYLWHMLICLVTFRMNSFFR,0.707 ± 1
16,YAMNPHTDGPCTFNWVFYGK,8.094 ± 0.056
17,YASSYNKRCNNVMNVVW,-0.299 ± 0.25
18,YASTSNILLSIS,0.546 ± 0.2
19,YAYFVSWGVFVIENVFPYKY,-1.27 ± 0.66
20,YCAFTSLRIIRISNIFIRHE,inactive
